In assay [1] the target is T1, TNFR2, P20333.
T1 chain: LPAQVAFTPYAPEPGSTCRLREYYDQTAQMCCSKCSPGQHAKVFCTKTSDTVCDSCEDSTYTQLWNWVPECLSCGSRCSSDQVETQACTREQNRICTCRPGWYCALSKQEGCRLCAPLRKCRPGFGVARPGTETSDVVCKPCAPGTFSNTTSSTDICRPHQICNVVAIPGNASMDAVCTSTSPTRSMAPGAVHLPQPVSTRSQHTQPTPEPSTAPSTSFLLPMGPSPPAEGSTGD
Description: method not stated. The note with it: remark: other sources report otherwise.

In assay [2] the target is T1, TNFR2, P20333. Description: method not stated; reference TNFα. The note with it: remark: other sources report otherwise.

B1: Progranulin (PGRN), P28799 18-593 (ligand)
chain: TRCPDGQFCPVACCLDPGGASYSCCRPLLDKWPTTLSRHLGGPCQVDAHCSAGHSCIFTVSGTSSCCPFPEAVACGDGHHCCPRGFHCSADGRSCFQRSGNNSVGAIQCPDSQFECPDFSTCCVMVDGSWGCCPMPQASCCEDRVHCCPHGAFCDLVHTRCITPTGTHPLAKKLPAQRTNRAVALSSSVMCPDARSRCPDGSTCCELPSGKYGCCPMPNATCCSDHLHCCPQDTVCDLIQSKCLSKENATTDLLTKLPAHTVGDVKCDMEVSCPDGYTCCRLQSGAWGCCPFTQAVCCEDHIHCCPAGFTCDTQKGTCEQGPHQVPWMEKAPAHLSLPDPQALKRDVPCDNVSSCPSSDTCCQLTSGEWGCCPIPEAVCCSDHQHCCPQGYTCVAEGQCQRGSEIVAGLEKMPARRASLSHPRDIGCDQHTSCPVGQTCCPSLGGSWACCQLPHAVCCEDRQHCCPAGYTCNVKARSCEKEVVSAQPATFLARSPHVGVKDVECGEGHFCHDNQTCCRDNRQGWACCPYRQGVCCADRRHCCPAGFRCAARGTKCLRREAPRWDAPLRDPALRQLL
As usually defined, the Kd is the constant that tells how readily two partners part at equilibrium. For B1, the dissociation constant Kd in assay [1] was 1.52 nM. In assay [2], this molecule displayed a fold higher binding affinity than TNFα of 600 fold.

Values taken from patent US20190388508A1.
